According to patent US20210253725A1 (BIONTECH, published 2021):
Positions count from the first letter of the chain named. Numbers in names are those of the source.

T1: CD134 expressed on the cell surface of HT1080_OX40 cells (human, UniProt P43489 29-277)
T1 sequence (looked up): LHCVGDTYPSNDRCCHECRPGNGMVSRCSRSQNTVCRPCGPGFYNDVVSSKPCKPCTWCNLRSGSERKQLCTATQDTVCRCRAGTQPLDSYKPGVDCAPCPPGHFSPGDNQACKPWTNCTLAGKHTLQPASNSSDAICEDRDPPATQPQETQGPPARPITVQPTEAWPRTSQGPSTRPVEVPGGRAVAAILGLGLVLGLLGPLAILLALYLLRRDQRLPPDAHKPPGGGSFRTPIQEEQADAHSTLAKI

T2: CD134 protein (His-tagged, Sino Biological Inc. 10481-H08H) (human, UniProt P43489 29-216)
T2 construct: bought protein coated on ELISA plates; also called OX40; TNFRSF4; not shown: His tag
T2 sequence (looked up): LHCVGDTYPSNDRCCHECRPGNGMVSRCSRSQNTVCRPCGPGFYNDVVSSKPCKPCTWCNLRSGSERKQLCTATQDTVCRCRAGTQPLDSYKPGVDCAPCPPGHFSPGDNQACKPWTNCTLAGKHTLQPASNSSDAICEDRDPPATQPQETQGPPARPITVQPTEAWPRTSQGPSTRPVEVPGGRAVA

B1: P018.S.12.A.E05 (antibody, V domains shown)
VH: QSVEESGGRLVTPGGSLTLTCTASGFDLSSYATSWVRQAPGKGLEWIGIIYGSGSTTYASWVKGQFTISKSSSTTVDLKMTSLTTEDTATYFCARGLVASTDNYNLWGPGTLVTVSS
VL: AAVLTQTPSPVSVAVGGTVTINCQASQSVYNNNYLAWFQQKPGQPPKLLIYLASILASGVPSRFKGSGSGTQFTLTINGVQSDDAATYYCLGDVGGGERVFGGGTEVVVK
notes: V regions on human Ig constant parts; also called AB134_76
B2: P018.S.12.A.G03 (antibody, V domains shown)
VH: QSLEESGGRLVTPGGSLTLTCTLSGIDLSSNAISWVRQAPGKGLEWIGIIFPGDNIYYATWAKGRFTISKTSTTVDLKMTSLRTADTATYFCARYHADDSVDLWGPGTLVTVSS
VL: AYDMTQTPASVSEPVGGTVTIKCQASQSINGWLSWYQQKPGQRPRLLIYRASDLAPGVSSRFKGSGSGTQFTLTISDVESADAATYYCHLGDIYSNIDYVFGGGTEVVVK
notes: V regions on human Ig constant parts; also called AB134_85
B3: P018.S.11.A.B06 (antibody, V domains shown)
VH: QSVEESGGRLVTPGTPLTLTCTASGFSLINYNMGWVRQAPGEGLEWIGTILTDGTVYYSNWAKGQFTISKTSTTVDLEMTSPTNEDTATYFCARDYPSYIAFDLWGPGTLVTVSS
VL: AQVLTQTASSVSAAVGGTVTINCQASQSVYNDDNLAWLQQKPGQPPKLLIYGASSLASGVPSRFSGSGSGTEFTLTISGVQSEDAAIYYCQGGGFSSGWYWAFGGGTEVVVK
notes: V regions on human Ig constant parts; also called AB134_27
B4: P018.S.11.A.B03 (antibody, V domains shown)
VH: QSLEESGGRLVTPGTPLTLTCTVSGFSLSNYAMSWVRQAPGKGLEWIAIISGSGSTNYASWAKGRFTLSKASTTVALKITSPTTEDTATYFCGRGRDDDYAWDLWGQGTLVTVSS
VL: DVVMTQTPASVSEPVGGTVTIKCQASQTISNYLAWYQQKPGQPPKLLIYAASTLASGVSSRFRGSGSGTEFSLTISDLESADAATYYCHCTYYDSSYHGFGGGTEVVVK
notes: V regions on human Ig constant parts; also called AB134_24
B5: P018.S.12.A.C06 (antibody, V domains shown)
VH: QSVEESGGRLVKPDETLTLICTVSGIDLSINVVGWVRQAPGEGLEWIGDISSHGDTIYATWAKGRFTISKTSTTVDLKMTSLTASDTATYFCARYVGDGYYDLWGPGTLVTVSS
VL: AYDMTQTPASVSAAVGGTVTINCQASQSISNLLAWYQQKPGQRPKLLIYDTSKLASGVPSRFKGSGSGTQFTLTISDLESADAATYYCQQSYSSSNIANLFGGGTEVVVK
notes: V regions on human Ig constant parts; also called AB134_66
B6: P018.S.12.A.B06 (antibody, V domains shown)
VH: QEQLEESGGGLVQPEGSLTLTCTASGFSFSYYWMCWVRQAPGKGLEWSACIGTGSGSTYYATWAKGRFTISKTSSTTVTLQMTSLTAADTATYFCARDWGIYSSDAYYMDYFNLWGPGTLVTVSS
VL: AFELTQTPASVEAAVGGTVTIKCQASQSIGSYLAWYQQKPGQPPKPLIYEASKLASGVSSRFKGSGSGTQFTLTISGVESADAATYYCQQGGISTNVQNAFGGGTEVVVK
notes: V regions on human Ig constant parts; also called AB134_60
B7: P018.S.12.A.B03 (antibody, V domains shown)
VH: QSLEESGGRLVTPGTPLTLICTVSGIDLSSGAMGWVRQAPGKGLEYIGYIYTGSGTTSYASWVNGRFTISMTSTTVDLKITSPTTEDTATYFCARDAASSYWGHFTLWGQGTLVTVSS
VL: DIVMTQTPASVEAAVGGTVTIKCQASENIYSSLAWYQQKPGQPPKLLIYRTSTLASGVPSRFKGSGSGTQFTLTISDLESDDAATYYCQSYYHNSGGGYDYGFGGGTEVVAK
notes: V regions on human Ig constant parts; also called AB134_58
B8: P018.S.11.A.G05 (antibody, V domains shown)
VH: QSLEESGGDLVKPGASLTLTCAASGFSLNNWVMCWVRQAPGKGLEWIACIDIVGSGSTHYATWAKGRFTMSKASSITVTLQMTSLTAADTATYFCARGVNGDGNLNLWGPGTLVTVSS
VL: DVVMTQTPASVSEPVGGAVTIKCQASETISNYLAWYQQKPGQRPKLLIYGASNLESGVPSRFKGSGSGTEFTLTISDLESADAATYYCQCTYVGDSYTAFGGGTEVVVK
notes: V regions on human Ig constant parts; also called AB134_45
B9: P018.S.12.A.F06 (antibody, V domains shown)
VH: QSLEESGGDLVKPGGTLTLTCKASGIDFNNYYVCWVRQAPGKGLEWVGCIYTGSGSTYYASWAKGRFTITRSSSTTVTLQMTSLTAADTATYFCARPEFYDTYGYAGYGYATPNYFNFWGPGTLVTVSS
VL: AAVLTQTPSPVSAAVGGTVTIKCQASQSVYNNNLLSWYQQKPGQPPKLLMYDASNLASGVPDRFSGSGSGTQFTLTISDLESDDAATYYCLGGYDDDADYNAFGGGTEVVVA
notes: V regions on human Ig constant parts; also called AB134_82
B10: P018.S.12.A.A06 (antibody, V domains shown)
VH: QSVEESGGRLVTPGTPLTLTCTVSGFSLSSFAMTWVRQAPGKGLEWIGIISSSGTTYYASWAKGRFTISKTSTTVDLRITSPTTEDTATYFCASHYDDYGDSDALDPWGPGTLVTVSS
VL: AAVMTQTPSPVSAAVGGTVTINCQASEDIYSNLAWFQQKPGQPPKLLIYRASTLASGVPSRFSGSGSGTEFTLTISGLQSDDAATYYCLGVDRHISDRAFGGGTEVVVK
notes: V regions on human Ig constant parts; also called AB134_55
B11: P018.S.11.A.E02 (antibody, V domains shown)
VH: QEQLEESGGDLVKPEGSLTLTCTASGFSFNVDYYMCWVRQAPGKGLEWIACIYVGSEGSTYYASWAKGRFTISKTSSTTVTLQMTSLTAADTATYFCARHYAGYAGYNYATDYYFTLWGPGTLVTVSS
VL: DIVMTQTPSSVSAGVGGTVTINCQASQSVTNFLSWYQQKPGQPPKLLIYGASTLASGVPSRFKGSGSGTEFTLTISGMKAEDVATYYCQSGYYSATFGAGTKVEIK
notes: V regions on human Ig constant parts; also called AB134_33
B12: P018.S.12.A.E01 (antibody, V domains shown)
VH: QSVEESGGRLVTPGGSLTLTCTVSGIDLSSADMSWVRQAPGEGLEYIGWINNVGSAYYASWAKGRFSISKTSSTTVDLKVTSLTTEDTATYFCVRGYWLDLWGQGTLVTVSS
VL: AAVLTQTPSPVSAAVGGTVSISCQSSVNVYNNNYLAWFQQKPGQPPKLLIYAASTLPSGVSSRFSGNGSGTEFTLTISGVQSDDAATYYCVGYYSSTDDNGFGGGTEVVVK
notes: V regions on human Ig constant parts; also called AB134_72
B13: P018.S.11.A.A03 (antibody, V domains shown)
VH: QSLEESGGDLVKPGASLTLPCTASGFTLSGYWMCWVRQAPGKGLEWIGCIYNGDGSTYYASWAKGRFTISKTSSTTVTLQMTSLTAADTATYFCARDSNGWGAYGLWGPGTLVTVSS
VL: AIEMTQTPSSVSAAVGGTVTIDCQASQSIGSYLSWYQQKPGQPPKLLIYDASDLASGVPSRFSGSGSGTEFTLTISGVQSDDAATYYCQGGYYSSATEIAFGGGTEVVVK
notes: V regions on human Ig constant parts; also called AB134_20
B14: P018.S.11.A.H05 (antibody, V domains shown)
VH: QQRLVESGGGLVKPGASLTLTCTASGFSFSSGYDMCWVRQAPGKGLEWVGCIDTATDTIYYASWAPGRFTISKTSSTMVTLQMTSLTAADTATYFCARSVGGVDYAIDLWGPGTLVTVSS
VL: AYDMTQTPVSVEVPVGGTVTIKCQASQNIGSRLVWYQQKPGQSPKFLIYYASNLASGVSSRFKGSGSGTQFTLTISDVQSDNAATYYCQQTYSYSDVDDTFGGGTEVVVK
notes: V regions on human Ig constant parts; also called AB134_48
B15: P018.S.12.A.D03 (antibody, V domains shown)
VH: B14 VH with Q2E, A55G, D57G, K73E, V103Y
VL: B14 VL with V9A
notes: V regions on human Ig constant parts; also called AB134_68
B16: P018.S.04.A.C06 (antibody, V domains shown)
VH: QSVEESGGRLVTPGTPQTLTCTVSGFSLSSYAMSWVRQAPGKGLEWIGIISSSGSTYYASWAKGRFTISKTSTTVDLKITSPTTEDTATYFCARDAYPSYSPFGYYFTLWGQGTLVTVSS
VL: AIKMTQTPASVSAAVGGTVSINCQASEDIYNYLAWYQQKPGQPPKLLIYDASDLASGVPSRFKGSGSGKQFTLTISGVQSDDAATYYCQHGYFTYSGENAFGGGTEVVVK
notes: V regions on human Ig constant parts; also called AB134_8

These binders were tested against T1, CD134 expressed on the cell surface of … (assay: cell-based or functional assay).
Note: test concentration or dose not given here.

Row | Binder | Functional assay Cross-linked by F(ab′)2 fragment IL-8 | Functional assay IL-8
1 | B1 | 2.11 abs. corr. | 0.132 abs. corr.
2 | B2 | 2.1 abs. corr. | 0.209 abs. corr.
3 | B3 | 2.1 abs. corr. | 0.403 abs. corr.
4 | B4 | 2.1 abs. corr. | -0.075 abs. corr.
5 | B5 | 2.1 abs. corr. | 0.881 abs. corr.
6 | B6 | 2.07 abs. corr. | 1.84 abs. corr.
7 | B7 | 2.05 abs. corr. | 1.07 abs. corr.
8 | B8 | 2.05 abs. corr. | 0.031 abs. corr.
9 | B9 | 2.05 abs. corr. | 0.374 abs. corr.
10 | B10 | 2.04 abs. corr. | 0.062 abs. corr.
11 | B11 | 2.04 abs. corr. | 0.214 abs. corr.
12 | B12 | 2.04 abs. corr. | 0.439 abs. corr.
13 | B13 | 2.01 abs. corr. | 1.38 abs. corr.
14 | B14 | 2.01 abs. corr. | 1.21 abs. corr.
15 | B15 | 1.83 abs. corr. | 0.707 abs. corr.
16 | B16 | 2 abs. corr. | 0.538 abs. corr.

What follows are binders tested against T1, CD134 expressed on the cell surface of … (assay: HT1080_OX40 cells, imaging).

Row | Binder | Cellular binding assay [RFU]
17 | B1 | 523 RFU
18 | B2 | 452 RFU
19 | B3 | 441 RFU
20 | B4 | 527 RFU
21 | B5 | 525 RFU
22 | B6 | 451 RFU
23 | B7 | 446 RFU
24 | B8 | 531 RFU
25 | B9 | 500 RFU
26 | B10 | 515 RFU
27 | B11 | 525 RFU
28 | B12 | 463 RFU
29 | B13 | 459 RFU
30 | B14 | 478 RFU
31 | B15 | 559 RFU
32 | B16 | 458 RFU

Each binder was assayed against T2, CD134 protein (His-tagged, Sino …) (assay: ELISA, coated His-tagged CD134).

Row | Binder | ELISA [abs. corr.]
33 | B1 | 1.93 abs. corr.
34 | B2 | 2.52 abs. corr.
35 | B3 | 2.13 abs. corr.
36 | B4 | 2.66 abs. corr.
37 | B5 | 2.35 abs. corr.
38 | B6 | 1.4 abs. corr.
39 | B7 | 1.18 abs. corr.
40 | B8 | 2.36 abs. corr.
41 | B9 | 1.65 abs. corr.
42 | B10 | 1.61 abs. corr.
43 | B11 | 2.65 abs. corr.
44 | B12 | 2.55 abs. corr.
45 | B13 | 1.93 abs. corr.
46 | B14 | 1.69 abs. corr.
47 | B15 | 1.34 abs. corr.
48 | B16 | 2.5 abs. corr.
